Our source for the Kd values is article PMC9481602 (2022).

For experiment [1], the target named is ubiquitin acetylated at K48 (UniProt P0CG48 1-76, acetyllysine (AcK) at position 48). The experiment in a line: NMR.
The target in another experiment is nonmodified ubiquitin (UniProt P0CG48 1-76). In words: NMR.

On to RFQQQLEQLNAMGFLNREANLQALIATGGDINAAIERLLGS (domain or fragment) [UBA domain of human Ubiquilin-2], for which the Kd in experiment [1] is 1300 nM; with nonmodified ubiquitin it was 500 nM.

By Kd is commonly meant the constant that tells how readily two partners part at equilibrium. Low values mean higher affinity, high ones lower affinity.
